The data set can be described thus: yeast display, Sf9 membrane polyspecificity reagent, FACS + sequencing; frameworks hold sequencing errors. The method, boiled down: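 After 36–48 hours of galactose induction, yeast (Saccharomyces cerevisiae BJ5465) displaying a synthetic nanobody library were stained at 4 °C for 1 hour with 10% biotinylated, detergent-solubilized Sf9 membrane reagent. Streptavidin microbeads enriched the stained cells before FACS sorting into low and high (top ~1%) gates on anti-HA and streptavidin fluorescence. Each clone's polyreactivity label reflects its gate of origin.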
With “QVQLVESGGGLVQAGGSLRLSCAASGRIFVHYVMGWYRQAPGKERELVAAISRSGGRTYYADSVKGRFTISRDNAKNTVYLQMNSLKPEDTAVYYCNVYHWSRVFAIDYYWGQGTQVTVSS”, the “polyreactivity (PSR sort gate)” value was “high polyreactivity”.
Turning to “QVQLVESGGGLVQAGGSLRLSCAASGRIFVINVMGWSRQAPGKERELVATITWSVGSTYYADSVKGRFTISRDTAKNTVYLQMNSLKPEDTAVYYCAAASSFKFDYWGQGTQVTVSS”, the “polyreactivity (PSR sort gate)” value is on record as “low polyreactivity”.
In the case of “QVQLVESGGGLVQAGGSLRLSCAASGRIFVKYAMGWYRQATGKERELVAAISKSGGSTYYADSVKGRFTISRDNAKNTVYLQMNSLKPEDTAVYYCATRSRDQYSVSYRLDYWGQGTQVTVSW”, the “polyreactivity (PSR sort gate)” value is “low polyreactivity”.
With “QVQLVESGGGLVQAGGSLRLSCAASGRIFVKYTMGWYRQAPGKERELVAAIDFDTDSTYYADSVKGRFTISRDNAMNTVYLQMNSLKPEDTAVYYCAADQYYYWYTHQSIGYDYWGQGTQVTVSS”, the “polyreactivity (PSR sort gate)” value is given as “low polyreactivity”.
In the case of “QVQLVESGGGLVQAGGSLRLSCAASGRIFVLYAMGWYRQAPGKERELVAAISTSGGSTYYADSVKGRFTISRDNAKNTYYLQMNSLKPEDTAVYYCAADRSARFLFIQYYPYGMDYWGQGTQVTVSS”, the “polyreactivity (PSR sort gate)” value was “high polyreactivity”.
Take “QVQLVESGGGLVQAGGSLRLSCAASGRIFVNYAMGWYRQAPGKEREFVAGIRVNGGSTYYADSVKGRFTISRDNAKNTVYLQMNSLKPEDTAVYYCAKAYPGTYREYDYWGQGTQVTVSS”: the “polyreactivity (PSR sort gate)” value was “high polyreactivity”.
On to “QVQLVESGGGLVQAGGSLRLSCAASGRIFVNYAMGWYRQEPGKERELVAAITSDGSTSYADSVKGRFTISRDTAKNTVYLQMNSLKPDDPAVYYCAKDFFEHSPVSHTYSSSKYDYWGEGTQVTVSS”, for which the “polyreactivity (PSR sort gate)” value is listed as “low polyreactivity”.
As for “QVQLVESGGGLVQAGGSLRLSCAASGRIFVPYAMGWYRQAPGKERELVAGITSGSRTNYADSVKGRFTISRDNAKYTVYLQMNSLKPEDTEVYYCNALDFRYYGIFDYWGQGTQVTVSS”, the “polyreactivity (PSR sort gate)” value is “high polyreactivity”.
“QVQLVESGGGLVQAGGSLRLSCAASGRIFVQYAMGWNRQAPGKERELVAAISGSGGRTYYADSVKWRFTISRDNAKNTVYLQMNSLKTEDTAVFYCAARSSTGVSFWKPYYYWGQGTQVTLSS”: the “polyreactivity (PSR sort gate)” value was “high polyreactivity”.
Regarding “QVQLVESGGGLVQAGGSLRLSCAASGRIFVRYAMGWYRQAPGKERELVAAISKSGGSTYYADSVKGRFTISRDNAKNTVYLQMNSLKPEDTAVYYCNALVRRRPGYIRYDYWGQGTQVTVSS”, the “polyreactivity (PSR sort gate)” value is listed as “low polyreactivity”.
Turning to “QVQLVESGGGLVQAGGSLRLSCAASGRIFVSNAMGWYRQAPGKERELVAGITWTSGSTYYADSVKGRFTISRDNAKNTVYLQMNSLKPEDTAVYYCAAEYCYGNAFDYWGQGTQVTVSS”, the “polyreactivity (PSR sort gate)” value was “low polyreactivity”.
Take “QVQLVESGGGLVQAGGSLRLSCAASGRIFVSNAMGWYRQAPGKERELVASISWSGGSTYYADSVKGRFTISRDNAKNTVYLQMNSLKPEDTAVYYCNRVRYPRQGFRLYYWGQGTQVTVSS”: the “polyreactivity (PSR sort gate)” value is on record as “high polyreactivity”.
Turning to “QVQLVESGGGLVQAGGSLRLSCAASGRIFVSNVMGWYRQAPGKERELVATITWSDGSTYYADSVKGRFTISRDNAKNTVYLQMNSLKPEDTAVYYCNVDQYTYVDLYWEYYFWGQGTQVTVSS”, the “polyreactivity (PSR sort gate)” value is reported as “low polyreactivity”.
The value for “QVQLVESGGGLVQAGGSLRLSCAASGRIFVTNAMGGYRQAPGKEREFVAGISFSGDGRTYYADSVKGRFTISRDNAKNTVYLQMNSLKPEDSAVYYCAAPHRSRTHELDYWGQGTQVTVSS” was “low polyreactivity”; that for “QVQLVESGGGLVQAGGSLRLSCAASGRIFVTYVMGWYRQAPGKERELVAAISRRGGTTYYADSVKGRFTISRDNAKNTVYLQMNSLKPEDTAVYYCNVARDYAVESGYWGQGTQVTVSS” was “high polyreactivity”; that for “QVQLVESGGGLVQAGGSLRLSCAASGRIFVVNAMGWYRQAPGKESELVAAITRRGGSTYADSVKGRFTISRDNAKNTLYIQMTSLKPEDTAVYYCNAESDFGIFRYKYDYWGQCTQVTVSS” was “high polyreactivity”.
The value for “QVQLVESGGGLVQAGGSLRLSCAASGRIFVYNAMGWYRQAPGKERELVAAITRGCSTYYADSVKGRFTISRDNAKNTVYLQMNSLKPEDTAVYYCASDYQRNDFRWYDYWGQGTQVTVSS” was “low polyreactivity”; that for “QVQLVESGGGLVQAGGSLRLSCAASGRIFVYNAMGWYRQAPGKERELVATITSGGSTYYADSVKGRFTISRDNAKNTVYLQMNSLKPEDTAVYYCAARRWYVHYFAYGYWGQRTQVTVSS” was “low polyreactivity”.
With “QVQLVESGGGLVQAGGSLRLSCAASGRIFVYNAMGWYRQAPGKERQLVAAIRNDGSTNYADSVKGRFTISRDNAKNTVYLLMNSLKPEDTAVYYCAKSVTGWRGLWYTPRNYYWGQGTQVTVSS”, the “polyreactivity (PSR sort gate)” value is given as “high polyreactivity”.
Turning to “QVQLVESGGGLVQAGGSLRLSCAASGRIFVYNVMGRYRQAPGKERELVAAISWGTGSTYADSVKGRFTISRDNAKNTVYLQMNSLKPEDTAVYYCAADSFIPPYDHWGQGTQVTVSS”, the “polyreactivity (PSR sort gate)” value is “low polyreactivity”.
For the sequence “QVQLVESGGGLVQAGGSLRLSCAASGRIFVYNVMGWYRQAPGKERELVAAISWGTGSTYADSVKGRFTISRDNAKNSVNLQMNSLKPDDTAVYYCAKESTVRRYDYWGLGTQVTVSS”, the “polyreactivity (PSR sort gate)” value is recorded as “low polyreactivity”.
Take “QVQLVESGGGLVQAGGSLRLSCAASGRIFVYYAMGWNRQAPGKERELVAAISSSGGSTYYADSVKGRFTISRDNAKNTVYLQMNSLKPEDTAVYYCNAVTSVQARPRNYYYWGQGTQVTVSS”: the “polyreactivity (PSR sort gate)” value is given as “high polyreactivity”.
On to “QVQLVESGGGLVQAGGSLRLSCAASGRIFVYYAMGWYRQAPGKEREFVAAITDSGGGTYYADSVKGRFTISRDNAKNTVYLQMNSLKPEDTAVYYCAKRFGQYRYPYDYWGQGTQVTVSS”, for which the “polyreactivity (PSR sort gate)” value is on record as “high polyreactivity”.
Regarding “QVQLVESGGGLVQAGGSLRLSCAASGRIFVYYAMGWYRQAPGKERELVAAITYSVDSTYYADSVKGRFTISRDNAKNTVYLQMNSLKPEDTAVYYCATDVDLAYGYQYEYWGQGTQVTVSS”, the “polyreactivity (PSR sort gate)” value is reported as “low polyreactivity”.
For “QVQLVESGGGLVQAGGSLRLSCAASGRIFVYYAMGWYRQAPGKERELVAAITYSVDSTYYADSVKGRFTISRDNAKNTVYLQMNSLKPEDTAVYYCATDVDWAYGYQYEYWGQGTQVTVSS”, the “polyreactivity (PSR sort gate)” value was “low polyreactivity”.
As to “QVQLVESGGGLVQAGGSLRLSCAASGRIFVYYVMGWYRQAPGKERELVASITFRGSRTYYADSVKGRFTISRDNAKNTVYLQMNSLKPEDTAVDYCNADVWASGSRGEGYWGQGTQVTVSS”, the “polyreactivity (PSR sort gate)” value is listed as “low polyreactivity”.
Take “QVQLVESGGGLVQAGGSLRLSCAASGRIFWANAMGWYRQAPGKERELVAAISYSGVSTYYADSVKGRFTISRDNAKNTVYLQMNSLKPEDTAVYFCAADRYRKYYYWGQGTQVTVSS”: the “polyreactivity (PSR sort gate)” value is “high polyreactivity”.
“QVQLVESGGGLVQAGGSLRLSCAASGRIFWANAMGWYRQATGKERELVAAITGSGRTYYADSVKGRFTISRDNAKNTVYLQMISLKREDTAVYYCAAVTYYELAQGYGYWGQGTQVTVSS”: the “polyreactivity (PSR sort gate)” value was “high polyreactivity”.
The value for “QVQLVESGGGLVQAGGSLRLSCAASGRIFWAYTMGWYRQAPGKERELVAAITGSGGSTYYADSVKGRFTISRDNAKNTVYLQMNSLKPEDTAVYYCAADIGYIRLPRGREYDYWGQGTEVTVSS” was “high polyreactivity”.
Take “QVQLVESGGGLVQAGGSLRLSCAASGRIFWDNAMGWYRQAPGKERELVAAISDSVVITYYADSVKGRFTISRDNAKNTVYLQMNSLKPEDTAVYYCAADKRGTVYLSSFWMDYWGQGTQVTVSS”: the “polyreactivity (PSR sort gate)” value is on record as “low polyreactivity”.

(Values after the nanobody polyreactivity screen of Harvey et al. (2022).)
